In paper PMC11983104 (Nucleic Acids Research, 2025) one finds Kd data, which are given here for 1 molecule.

The assay has as its target GST-NLE1-Ubl WT (human, UniProt Q9NVX2 11-104). Put plainly: ITC.

GST-NLE1-Ubl WT, sequence (Q9NVX2 11-104): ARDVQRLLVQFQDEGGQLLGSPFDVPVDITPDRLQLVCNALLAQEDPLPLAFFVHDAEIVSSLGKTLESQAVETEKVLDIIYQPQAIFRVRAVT

B1: MDN1-MIDAS-(His)6 (domain or fragment)
chain: ELERQLEMWQPRESGNPEEEKVAAEMWQSYLILTAPLSQRLCEELRLILEGSGKPSKRQYQICLAIDDSSSMVDNHTKQLAFESLAVIGNALTLLEVGQIAVCSFGESVKLLHPFHEQFSDYSGSQILRLCKFQQKKTKIAQFLESVANMFAAAQQLSQNISSETAQLLLVVSDGRGLFLEGKERVLAAVQAARNANIFVIFVVLDNPSSRDSILDIKVPIFKGPGEMPEIRSYMEEFPFPYYIILRDVNALPETLSDALRQWFELVTASDHP
B1: the dissociation constant (Kd) is 5.5 nM.
